Results published in the supplement of paper PMC11811203.

B1: THAP1; numbered along this chain (parent)
chain: MVQSCSAYGCKNRYDKDKPVSFHKFPLTRPSLCKEWEAAVRRKNFKPTKYSSICSEHFTPDCFKRECNNKLLKENAVPTIFLCTEPHDKKEDLLEPQEQLPPPPLPPPVSQVDAAIGLLMPPLQTPVNLSVFCDHNYTVEDTMHQRKRIHQLEQQVEKLRKKLKTAQQRCRRQERQLEKLKEVVHFQKEKDDVSERGYVILPNDYFEIVEVPA

Variants of: B1
Experiment: THAP1 transcriptional activity (GFP+/GFP- enrichment relative to wild-type constructs) (ratio to WT); higher = more THAP1 activity (PSMB5 reporter activation)
Conditions: with PSMB5 promoter-GFP reporter
Procedure: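 Deep mutational scan of human THAP1. Site-saturation single amino acid variant library (residues 2-213) was expressed by lentivirus at MOI ~0.3 in THAP1-knockout HEK-293T cells carrying an endogenous PSMB5 promoter-GFP knock-in reporter. Five days post-transduction, BFP+ cells were FACS-sorted into GFP dim and GFP bright populations and variants were counted by Illumina sequencing. Activity is the GFP-bright/GFP-dim read fold change, mean of 2 replicates, divided by the mean fold change of wild-type (synonymous) constructs in the same screen pool; WT = 1.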

THAP1 transcriptional activity, by site and new letter:
S6: R 0.223 | G 0.123 | T 0.309 | F 0.149 | H 0.106 | Q 0.103 | V 0.541 | K 0.122 | W 0.163 | C 0.562 | L 0.0726 | N 0.174 | I 0.183 | E 0.153 | D 0.163 | M 0.172 | A 0.787 | P 0.185 | Y 0.202
A7: M 0.279 | F 0.19 | N 0.133 | D 0.0976 | R 0.122 | P 0.0917 | H 0.179 | E 0.154 | V 0.612 | G 0.118 | W 0.0983 | Y 0.218 | I 0.165 | T 0.0906 | K 0.186 | S 0.122 | Q 0.1 | L 0.156 | C 0.163
S21: I 0.128 | A 0.0835 | C 0.0926 | M 0.182 | L 0.0984 | F 0.11 | Q 0.176 | E 0.0854 | T 0.174 | P 0.0702 | G 0.164 | K 0.0427 | Y 0.109 | H 0.0793 | D 0.0962 | N 0.152 | R 0.131 | W 0.115 | V 0.0819
P19: D 0.681 | F 0.276 | K 0.674 | G 0.547 | H 0.266 | C 0.529 | R 0.675 | A 0.691 | Q 0.335 | W 0.162 | V 0.213 | Y 0.197 | M 0.208 | L 0.412 | N 0.682 | I 0.186 | S 0.78 | E 0.528 | T 0.681
K18: S 0.384 | N 0.432 | W 0.131 | L 0.367 | Q 0.511 | Y 0.142 | T 0.348 | G 0.258 | H 0.202 | C 0.238 | V 0.618 | D 0.0802 | E 0.152 | A 0.356 | R 0.936 | F 0.11 | I 0.444 | M 0.186 | P 0.0831
C10: N 0.121 | P 0.114 | F 0.113 | V 0.175 | G 0.098 | Q 0.125 | R 0.157 | M 0.103 | D 0.129 | Y 0.106 | S 0.308 | L 0.167 | I 0.0687 | W 0.125 | H 0.0737 | K 0.156 | T 0.0641 | E 0.0982
R13: P 0.0852 | D 0.115 | Q 0.122 | I 0.116 | E 0.153 | F 0.14 | W 0.232 | N 0.126 | S 0.133 | G 0.106 | V 0.185 | H 0.117 | T 0.147 | L 0.229 | A 0.17 | M 0.0992 | K 0.211 | Y 0.0688 | C 0.132
K16: T 0.136 | P 0.334 | M 0.105 | I 0.197 | V 0.255 | H 0.0905 | R 0.661 | F 0.117 | C 0.121 | L 0.129 | A 0.284 | D 0.0673 | G 0.17 | Y 0.158 | Q 0.164 | N 0.0777 | S 0.191 | W 0.208 | E 0.125
F22: G 0.0652 | L 0.117 | K 0.0858 | Y 0.288 | E 0.0853 | T 0.126 | M 0.0987 | W 0.125 | D 0.0567 | S 0.0454 | H 0.12 | C 0.0658 | V 0.115 | Q 0.121 | N 0.0832 | I 0.178 | A 0.115 | R 0.0771 | P 0.132
K11: I 0.265 | L 0.191 | A 0.284 | Y 0.201 | C 0.369 | N 0.629 | P 0.178 | S 0.282 | M 0.124 | R 0.771 | T 0.513 | W 0.0942 | V 0.529 | D 0.0638 | Q 0.354 | E 0.121 | H 0.343 | G 0.133
G9: Q 0.115 | R 0.256 | N 0.241 | V 0.0945 | W 0.167 | K 0.4 | P 0.116 | T 0.132 | D 0.196 | C 0.261 | L 0.184 | S 0.167 | F 0.148 | Y 0.149 | M 0.381 | I 0.144 | A 0.209 | H 0.283
Y14: T 0.0786 | E 0.0718 | C 0.157 | R 0.36 | V 0.151 | K 0.083 | M 0.0755 | P 0.164 | D 0.122 | S 0.124 | A 0.211 | W 0.851 | I 0.119 | G 0.085 | L 0.146 | N 0.165 | F 0.5 | H 0.106 | Q 0.142
V20: S 0.0781 | I 1.71 | D 0.128 | M 0.155 | P 0.101 | Y 0.312 | G 0.125 | W 0.141 | Q 0.139 | F 0.204 | C 0.141 | H 0.115 | N 0.161 | E 0.148 | T 0.58 | R 0.261 | L 0.297 | A 0.135 | K 0.0912
D15: W 0.122 | F 0.272 | G 0.411 | I 0.436 | S 0.562 | R 0.656 | Y 0.172 | A 0.754 | N 0.605 | M 0.419 | C 0.853 | Q 1.05 | V 0.631 | K 0.704 | E 0.569 | L 0.298 | T 0.679 | P 0.107 | H 0.997
H23: C 0.0806 | A 0.116 | I 0.0266 | F 0.0843 | L 0.0839 | D 0.117 | E 0.123 | K 0.125 | G 0.088
Y8: Q 0.509 | S 0.467 | I 0.484 | R 0.374 | G 0.241 | T 0.785 | A 0.581 | K 0.356 | V 0.472 | E 0.484 | C 0.192 | H 0.464 | F 0.667 | M 0.368 | D 0.564 | L 0.795 | W 1.08 | P 0.58 | N 0.449
D17: E 0.889 | V 0.314 | M 1.14 | C 0.541 | S 1.49 | N 0.707 | I 0.0905 | T 1.49 | W 0.509 | L 0.861 | Q 1.12 | F 0.706 | P 0.129 | R 1.11 | H 1.05 | A 1.12 | G 0.387 | K 1.31 | Y 0.747
N12: D 0.0987 | G 0.0923 | K 0.125 | Y 0.149 | L 0.0949 | F 0.112 | S 0.283 | M 0.199 | R 0.172 | V 0.129 | C 0.0986 | I 0.0667 | E 0.111 | T 0.097 | H 0.108 | A 0.107 | Q 0.22 | W 0.121 | P 0.0735
C5: V 0.174 | S 0.0878 | W 0.202 | T 0.162 | Y 0.118
